Measurements from the DeepSol protein solubility set.

Assay: soluble on expression in E. coli; label from the status in PepcDB or PDB records

Sequence	soluble on expression in E. coli
MSLGDLPLGWHKLHLKSNERSAECGLIITPARLSTADKYLDSPRSGVMAQIYSVRSTLSWGMGDFNDLGNLASVVAQDGADFLLINPMHAAEPLPPTEDSPYLPTTRRFINPIYIRVEDIPEFNQLEIDLRDDIAEMAAEFRERNLTSDIIERNDVYAAKLQVLRAIFEMPRSSEREANFVSFVQREGQGLIDFATWCADRETAQSESVHGTEPDRDELTMFYMWLQWLCDEQLAAAQKRAVDAGMSIGIMADLAVGVHPGGADAQNLSHVLAPDASVGAPPDGYNQQGQDWSQPPWHPVRLAEEGYIPWRNLLRTVLRHSGGIRVDHVLGLFRLFVMPRMQSPATGTYIRFDHNALVGILALEAELAGAVVIGEDLGTFEPWVQDALAQRGIMGTSILWFEHSPSQPGPRRQEEYRPLALTTVTTHDLPPTAGYLEGEHIALRERLGVLNTDPAAELAEDLQWQAEILDVAASANALPAREYVGLERDQRGELAELLEGLHTFVAKTPSALTCVCLVDMVGEKRAQNQPGTTRDMYPNWCIPLCDSEGNSVLIESLRENELYHRVAKASKRDEGHHHHHH	not soluble
MGSDKIHHHHHHMADPQTLDKIIDKTLDTVGKSREQIFEISEQSRNEYVSLEQELQEVRMKVAEIIDQSDRAEVHARFARNRLAEVSKQFHRYSNEEIRKVYEQANELQVKLALLQQEEQQLRDRRDAIERRLLNLKDTIERAEELVGQMTVVYNFLTGDLRQVGEALEDAREKQAFGLQIIQAQEEERRKLSREIHDGPAQMMANVLLRSELVERIYHDKGIDEALKEIRDLRKMVKSSLAEVRRIIYDLRPMALDDLGLIPTLKKYVKTFEEHTGIFVDFKHIGKGERFPEHVEIALFRLVQEALQNTRKHAKASHVHVKIEEQKTKFTVVIKDNGKGFDQTEKKEGSFGLVGMKERVNMLKGQLVIRTKPNDGTTIIISIPITTEE	not soluble
MGSDKIHHHHHHMKLFTSCKESVKNSIDTKYFSIAHLHSEEETMSIHIHDCYEIYYSISGENQFLIDNKLYYINPGNLFAVNEFESHYVSQVNNSTHERIVISIHPDFLKSLCTSKTNLTYCFKHRGSNFCHKVSLNKEQQSRFMYFINKIIGSHGFGADMIEYASFIELMIFLTSLFINNGESLTPIYKYSNQIEEIIRYINDNVTNDITVKHLAEHFFLSESYICRIFKLSTGTTINKYITARRISMAKALLSNGSSINDVYVKCGFNDYSNFLKSFKKAVGISPKKYSTFSTS	not soluble
MGSDKIHHHHHHMRIAYLSSAYLAPVEYYTKLLEYDKIYVEQHDHYIKQTYRNRCTIAGPDGELALSIPTVKPDTLKCPMKDIRISDHGNWRHLHWNAIESAYNSTPYFEYYKDDFRPFYEKKYEFLADFNEELCQLVCKLIDIQPCIERTSEYKTEFTTEETDFREIIHPKKDFQIADPEFVPHPYYQVFDSKLGFLPNLSIIDLLFNMGPESLLVLTSK	not soluble
SNAKSEIGKYAPFFSLPNAKGEKITRSSDAFKQKSLLINFWASWNDSISQKQSNSELREIYKKYKKNKYIGMLGISLDVDKQQWKDAIKRDTLDWEQVCDFGGLNSEVAKQYSIYKIPANILLSSDGKILAKNLRGEELKKKIENIVEEA	soluble
MDAHLVQAKKTSTASELSDSSLTFPFIGDYLSSPSLTTSDYVSDCSNLTVEGPVPANQEFSSSDESSVYISSALRLADYAFTPDDNIRIKPDAVIVICTQCQHQIQDKFFLSIDGRNYHENCLQCSTCENPLSNKCFYKDKTFYCKGCYFRTHVTSTASSCRELGPKCASCDRTIQATDWVRRARNYVYHLACFSCNQCKRQLSTGEEYALQEGNLLCKQHFLELVEGDSGVSSQKAKTKRVRTTFAEDQLSVLQTYFNRDSNPDGADLEKIASMTGLSKRVTQVWFQNSRARQKKWHQKSEGDNGDSQRSSVGPSSPSQKSDSSSEMMYPTSVTTSVEDAIPDSIVILGSLQFD	not soluble
GPGSMSHSSLKRAPEITPQAATDKDSILCRSAHAKPLSFTTAPRDSAMVKLDVTLLRFMEDEDFRVLTALEMAMRNHDVAPTALVERIAQLPHGGCRKRLNNLLKHKMIHHENTMYDGYAMKYGAYDYLALRTLSKRGTCTGVGHRIGCGKESDIILVRDEAGHECVLKLQRLGRCSFRSVARNRDYKGNGRARHGESWFYLSRLASQKEYSFMKMLYDEGFPVPKPIDQNRHALLMELVPGTLLNNITELGDASKVYRRALELMVKLAESGLIHGDFNEFNLMITDDQRVIMIDFPQMISINHPNASELFDRDVQNLANFFHRRFKVDTTWFPSLEKDVVRKNELDKQVYASGHFTRKQQEDLERLMLEGFQRGEKSDDEAGSQARDSDASDDDGDENALQRSDIGNADVDAGVAGKFMTIPGFARGGESDEEREDSSDDDASEGRLLDEAMGAARERRQGEFYAHNADRNANFFPDGKINEDHVKHQIRKSIRRKDNHDFNRHLHRNVQKGRQKQKIQRQLKSSNGGGFFD	not soluble
MYSDHTQTEAFRGELHGVYGLLFTDGGAPSSAQTSTDFIDASLGVNGYLAADGRGTLAGRVSGVLAGQPAVVGLRNAQAQYWATATGSGDYQINGVRPGRYRMTLYQHELEVAQRDVEVFAGATAQAALQAVSLPGAVKWLEHHHHHH	not soluble
MAFPRRLLSLSLRVKDLEAALFFYRDLLGLKVEADPPRYRLFPEGRGFLLELLHDPEAPLRPYPSLGLYHFALLLPHRKALAGVFRRLLEAGAHFEGAADHGVSEALYFRDPEGNGLELYRDRPKEAWPKGPLMFTAPLNLEKLLAENPDPTPLPPETLLGHLHLHVEDLAAAEAFFNGKLGMEVTLRTYPGALFFAWDGYHHHVGANTWAGRRKAPPGATGLLGYTLLAPPGVPPGEHPDPTGALARVLTEPPPSP	soluble
MKPATLTAELDVRSGGRYRISFVSDDGEYFEAGGTYREVVPNELLVFTWAWHSTPERESLVTISFKPDSAGTLMIFHHAQFFDEAARDNHRRGWSSFLDKLDAFVALEHHHHHH	not soluble
MKIGFFTDTYFPQVSGVATSIKTLKDELEKHGHEVYIFTTTDPNATDFEEDVIRMPSVPFVSFKDRRVVVRGMWYAYLIAKELELDLIHTHTEFGAGILGKMVGKKMKIPVIHTYHTMYEDYLHYIAKGKVVRPSHVKFFSRVFTNHTTGVVCPSERVIEKLRDYGVTAPMRIIPTGIEIDKFLRPDITEEMIAGMRQQLGIEEQQIMLLSLSRISYEKNIQAIIQGLPQVIEKLPQTRLVIVGNGPYLEDLKELAEELEVSEYVQFTGEVPNEEVAIYYKAADYFVSASTSETQGLTYTEAMAAGVQCVAEGNAYLNNLFDHESLGKTFKTDSDFATTLIDYIQANIKMDQTILDEKLFEISSTNFGNKMIEFYQDTLIYFDQLQMEKENADSIKKIKVKFTSLRKLEHHHHHH	soluble
MGSDKIHHHHHHMVTIVPINEEERASIINGLKSSVPATKLITLKKIVDLTVLRPESLQYMEMTDKMAIQRIVSGIERIMEYDIDEVLKREASIALEKLKVTLGSKFVQNLFYCQNCNGVVDIGWENCANCGASLAEMEFAETKPCPNCNKHTSENWNNCAHCGFQLIKEEDKIQKCSGCKREVDPTWMVCPYCGTRLKVSKK	not soluble
VYWLNWTDRTRKFTIYNDIIERSLLTLKMMSFYNGAVLASLTTSLPEAVGEVRNWDYRFCWLRDASMSIETLFKIGHADATRKFMKFIQSTFVAEHDTYQIMYGIRGERKLTEVILDHLSGYKNSQPVRIGNDAYHQRQNDSFGYLMDLIYQYYRLMPGTLDEIEDMWEMVKSIMTTVMEDWRKPDKGIWEIRGEGQHFVSSKVMCWVALDRGARIARILNKYENSRRWEEEADAIKADVMRNGWKEEIQSFSQAYGNLDLDSSLLLMEPYGFIDADDIRYHKTVKAVKQSLLHKGLMYRYNTHDDFGCPSSAFTICTFWLIRALYVIGEKDEARCLFDEILQYSNHLGLFSEDIDFETKEQLGNFPQAYSHLALVNTAVLFAE	not soluble
MSLSAMQWERLLDPTRLNDKHGGSREEIGRSPFHKDHDRIVFAGSFRRLGRKTQVHPLTDNDHIHTRLTHSLEVGCVGRSLGMIVGEQLRERLPAWITPADLGVIVQAACLGHDIGNPPFGHAGEYAIRDWFKRAEADGSGLLADLAPAEREDLLTYEGNAQGFRIVTQIEYNQFNGGMRLTAATLGTMLKYPWTVERASRAGKFGCYQSERELLGEVAERLGLLPRGETAWCRHPLAYLVEAADDICYALLDLEDGLEMGILRFDEVAEILIQIAGGAPEGYDGMRARGVSQRRRIATLRGAAMERAVNDVAAVFVAHESALLGGTLSEDLLELCHPDLGWGVGTAKRIARERIFQNERKAKLEIGAYTTLGILLEAFIGAAHELHYSGQSSFKHQRVLALIGENTPKSSWSLYASYRRMLDFIGGMTDHYAVDLAQEMGGRLEGHHHHHH	soluble
MSLTNQVTYLFFHGMKQISEHLFTTEEQAIIARSKAEGSYMKAPNGQATNLNKKQWAQVRTRAFREWFGDWENNPDEASKVRDANGEPLVVYHGTPISRDQAADRSKFRIADDWEIQTINAPFHTFRGGAYNGLIFTSLTEEKARSIGETRSMSIPDSEDGREQWTTDSYVYDLFVNARQPFDVKNPNAVKDILDALEGQLTAYDFYLGMEVPVSRKEAEKILEGGNSWRVVETPSMQEIIRSRGYDAIHALDEGVQYMAVFAPNQLKASGKYLYSERNTGVFSPGNNDIRFREVHHGVPASFTGYRSMKTETVRNDNIPAVLAALREKLEDTEQEWQDRILDYIAENYPTQTTVSAQTRSPEGLKEREAMKEGHHHHHH	soluble
MISSMTGFGRSKVESDTFQITVEMKSVNHRFLEMSIRLPKQMMVFEDKIRKIIAQQVRRGRIEVSISIAGEGLVERKLSVNWSLLEQYQSMMEDIKGKFQLQDSITLEQLMAMPEVTAIEEIENVNEHFENSLYEAVRQAAHMLKTMRDGEGERLHKDIAYRLQEISNCVNAIIPHAPIVTQKYRERLENRLKELHNQDLDEQRLLTEVAIFAERCDIHEELVRLQSHLEQFRETLQIEEPVGRKMDFIVQEMHREINTIGSKANDLTISKYVVEMKNNLEKIREQVQNIE	not soluble
MMAKLVVCIIDGMADPPPPAGGVTPLAAAHTPHCDTLARHSVAGLCHVIQPEAVPGSEAGLSALLCCEAAASIARGPVEALAQGDPVAPHETVWRLNLVSLGPRGNYYNPAPLLDAATETAARKMLDRALGTQGYSLLGGKGFRHLCAGTEPPVLRDGPQDVCGMTPDTGQADLNSYCPRLARAMTEANVLFRRSRMDLAVWPWGAGTMPDLPGFAETTGQTGALAGGVPLARGLALALGMTAPSIAGATGGIDTDLGAKTRAAIALAAGHDVVYLHVEAPDLHAHALDRVAKRRAIERIDAEVVGPLHMALPDATLLITCDHATDCATGRHMAIPVPFILHKPDGPQDGIATFSEAASARTGIRIDSAATLVRLALADLEHHHHHH	soluble
MAGQEHHYAVQVKWTGNRGKGTSGYRDYERDYTISTAGKADITGSSDPAFRGDPSRWNPEDLLVASLSACHKLWYLHFCSVNGIIVEDYVDNAEGTLVMEKDGAGQFSEVVLKPVITISKGDPARADELHHDAHDKCFIARSVNFPIRVQGTVKVV	not soluble
RELIHFAHGNGFPSLCYKQLLEQLETRFDCCFIDKIGHDPDYPVGENWHNLVAEIIASIKRQAEQPVIAVGHSLGGVLSLLAAIEQPKLFKAVIMLDSPLIGAFKSSMVRLAKALGIIDRVTPAFRTKKRREHWQNYEQLISYLKTRDLFKTFTEECLNDYIKYGLQYKEDGYYLRFDRHVEYQIYRTIPHVIPRYKGKLIVPAALIYGDKSTVVDRMDIRYMKNHFNVKCFKTMGTHLFPMEHPKAVGKQVIEVIDAII	not soluble
